Data as given in article PMC5800781 (Nature, 2017).

T1: BARD1 (human, UniProt Q99728 1-777)
T1 sequence (looked up): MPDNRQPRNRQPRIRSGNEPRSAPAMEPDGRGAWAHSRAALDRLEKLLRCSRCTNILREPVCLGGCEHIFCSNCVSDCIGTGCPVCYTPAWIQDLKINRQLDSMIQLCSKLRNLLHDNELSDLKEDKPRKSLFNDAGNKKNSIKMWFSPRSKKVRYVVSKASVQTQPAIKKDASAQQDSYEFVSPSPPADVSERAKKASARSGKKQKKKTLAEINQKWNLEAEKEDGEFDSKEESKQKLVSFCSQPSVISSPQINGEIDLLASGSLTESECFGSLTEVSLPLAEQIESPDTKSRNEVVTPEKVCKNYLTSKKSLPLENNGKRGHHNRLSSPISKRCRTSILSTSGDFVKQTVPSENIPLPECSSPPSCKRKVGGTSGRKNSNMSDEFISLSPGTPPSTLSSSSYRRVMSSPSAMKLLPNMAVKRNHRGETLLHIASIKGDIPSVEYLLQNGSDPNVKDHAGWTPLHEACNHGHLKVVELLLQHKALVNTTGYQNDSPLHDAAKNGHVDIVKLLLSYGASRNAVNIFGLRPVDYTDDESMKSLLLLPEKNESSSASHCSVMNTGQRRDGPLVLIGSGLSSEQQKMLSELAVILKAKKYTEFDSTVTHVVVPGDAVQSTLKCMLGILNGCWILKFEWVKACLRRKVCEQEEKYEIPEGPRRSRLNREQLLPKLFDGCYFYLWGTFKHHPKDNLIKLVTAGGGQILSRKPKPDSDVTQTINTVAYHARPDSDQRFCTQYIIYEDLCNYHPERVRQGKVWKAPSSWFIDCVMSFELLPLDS

B1: RAD51 (natural protein, human, UniProt Q06609 1-339, looked up)
chain: MAMQMQLEANADTSVEEESFGPQPISRLEQCGINANDVKKLEEAGFHTVEAVAYAPKKELINIKGISEAKADKILAEAAKLVPMGFTTATEFHQRRSEIIQITTGSKELDKLLQGGIETGSITEMFGEFRTGKTQICHTLAVTCQLPIDRGGGEGKAMYIDTEGTFRPERLLAVAERYGLSGSDVLDNVAYARAFNTDHQTQLLYQASAMMVESRYALLIVDSATALYRTDYSGRGELSARQMHLARFLRMLLRLADEFGVAVVITNQVVAQVDGAAMFAADPKKPIGGNIIAHASTTRLYLRKGRGETRICKIYDSPCLPEAEAMFAINADGVGDAKD

Tests used:
RAD51 = target: B1; assay: pull-down
BRCA1 = BRCA1 (UniProt P38398 1-1863); assay: far-Western, overlay or dot blot
BARD1 = target: T1, BARD1; assay: far-Western, overlay or dot blot
[1] = target: BRCA1^1-500-BARD1 complex ( | human, UniProt P38398 1-500; Q99728 1-777); assay: pull-down
[2] = target: BRCA1^Δ758-1064-BARD1 complex ( | human, UniProt P38398 1-1863; Q99728 1-777, Δ758-1064); assay: pull-down
BRCA1-BARD1 complex = BRCA1-BARD1 complex ( | human, UniProt P38398 1-1863; Q99728 1-777); assay: pull-down

binding result (RAD51)	binding result (BRCA1)	binding result (BARD1)	binding result [1]	binding result [2]	binding result (BRCA1-BARD1 complex)	Binder
binds	–	–	–	–	–	LKEDKPRKSLFNDAGNKKNSIKMWFSPRSKKVRYVVSKAS (domain or fragment, human, UniProt Q99728 123-162, looked up) [GST-BARD1^123-162]
–	binds	binds	binds	binds	binds	B1
